Series [1] deals with NCp9 (p7 + SP2) (HIV-1) (UniProt P12493). The series can be described thus: fluorescence anisotropy. (In general: Fluorescence polarisation rises when a labelled molecule tumbles more slowly, as on binding a larger partner.)
The target of series [2] is NCp7 (mature nucleocapsid) (HIV-1) (UniProt P12493). The experiment in a line: fluorescence anisotropy.
The target of series [3] is NCp15 (p9 + p6) (HIV-1) (UniProt P12493). The experiment in a line: fluorescence anisotropy.
Series [4] has as its target NCp15 (p9 + p6) (HIV-1, UniProt P12493 378-500). The experiment in a line: fluorescence anisotropy salt titration; Kd extrapolated to 1 M NaCl; Zeff 3.8 ± 0.7. The settings on record: protein: recombinant; tags: none (Trx tag removed by TEV); label: 5' FAM; single strand.
Series [5] has as its target NCp9 (p7 + SP2) (HIV-1, UniProt P12493 378-448). The series can be described thus: fluorescence anisotropy salt titration; Kd extrapolated to 1 M NaCl; Zeff 4.3 ± 0.7. The settings on record: protein: recombinant; tags: none (Trx tag removed by TEV); label: 5' FAM; single strand.
Series [6] addresses NCp7 (mature nucleocapsid) (HIV-1, UniProt P12493 378-432). The series can be described thus: fluorescence anisotropy salt titration; Kd extrapolated to 1 M NaCl; Zeff 3.0 ± 0.3. The settings on record: protein: recombinant; tags: none (Trx tag removed by TEV); label: 5' FAM; single strand.

The Kd is the constant that tells how readily two partners part at equilibrium. For shortPBS RNA (105 nt), the Kd amounted to 0.24 µM in series [1], 0.231 µM in series [2] and 0.278 µM in series [3].

B1: 40-nt ssDNA (ssDNA)
DNA: ACTGGACCAAATTCTAATGTGTGTGTACGAAGCATAGCGG
Take B1: the Kd in series [4] is 78 µM; in series [5], 92 µM; in series [6], 23 µM.

(Values after article PMC4066767, “Distinct nucleic acid interaction properties of HIV-1 nucleocapsid protein precursor NCp15 explain reduced viral infectivity”.)
